The target of assay [1] is full-length mouse CSF-1R (RefSeq ID NP_001032948) expressed on HEK293F cells (mouse) (UniProt P09581). As to the kind of experiment: flow cytometry on HEK293F cells transiently expressing full-length mouse CSF-1R (IRES-EGFP vector), IgG at 100 nM, Alexa Fluor 647 anti-human Fc detection [Conti.]. A general note: In flow cytometry, cells or beads pass a laser one at a time.

Assay [2] addresses T1, human CSF1R-His (Acrobiosystem, CSR-H5228) (human, UniProt P07333 20-512, limits assumed).
T1 construct: Bought protein; The catalogue number is printed only for the SPR assay; also called human CSF-1R protein; not shown: His tag
The assay is described as follows: SPR Biacore T200; IgG captured by anti-human Fc, CSF1R-His as analyte, 1:1 fit. From the text:
The specific binding affinity and kinetics of antibodies against human CSF-1R protein were examined by surface plasmon resonance (SPR) analysis using a Biacore™ T200 instrument (GE, USA) according to the manufacturer’s guidelines. Anti-Human IgG (Fc) antibody (Sigma, I2136) was immobilized on CM5 chips according to the instructions of Amine Coupling kit (GE Biacore #BR-1000-50). The immobilized Anti-Human IgG (Fc) antibody was used to capture the antibodies. […] The running buffer used was 0.01 M HEPES, 0.15 M NaCl, 3 mM EDTA, 0.05% (v/v) surfactant P20, pH 7.4. Corresponding controls were conducted in each case using a blank flow cell with no protein captured for “background” subtraction. The association and dissociation curves were fitted to a 1:1 Langmuir binding model using Biacore T200 Evaluation Software (GE, USA) according to the manufacturer’s guidelines.
Background: In SPR one partner is held on a chip, and binding of the other changes the refractive index at the surface.

The target in assay [3] is full-length monkey CSF-1R (RefSeq ID XP_015307616) expressed on HEK293F cells (monkey, UniProt A0A2K5WG90 20-976). As to the kind of experiment: flow cytometry on HEK293F cells transiently expressing full-length monkey CSF-1R (IRES-EGFP vector), IgG at 100 nM, Alexa Fluor 647 anti-human Fc detection [Conti.]. The procedure: (§1) The specificities of the antibodies were also assessed against human, monkey and mouse CSF-1R that are transiently expressed on the surface of HEK293F cells (FIG. 1). Briefly, HEK293F cells were transfected with a plasmid expressing full-length human, monkey (RefSeq ID XP_015307616) or mouse (RefSeq ID NP_001032948) CSF-1R from a bicistronic IRES vector. EGFP was used to identify the transfected cells. After 40 hrs, the transfected cells were harvested and then washed once with 1% PBSA buffer (1% (w/v) BSA in 1×PBS). Cells were then incubated with various IgGs (each at 100 nM) for 1 hr at room temperature, washed once with pre-chilled 1% PBSA buffer, and incubated with Alexa Fluor® 647 conjugated mouse anti-human Fc antibodies for 30 min on ice. The cells were washed once prior to analysis by flow cytometry (Beckman® CytoFlex).
Sequence of full-length monkey CSF-1R (RefSeq ID XP_015307616) expressed on HEK293F cells (A0A2K5WG90 entry or part of it limits assumed, form in doubt): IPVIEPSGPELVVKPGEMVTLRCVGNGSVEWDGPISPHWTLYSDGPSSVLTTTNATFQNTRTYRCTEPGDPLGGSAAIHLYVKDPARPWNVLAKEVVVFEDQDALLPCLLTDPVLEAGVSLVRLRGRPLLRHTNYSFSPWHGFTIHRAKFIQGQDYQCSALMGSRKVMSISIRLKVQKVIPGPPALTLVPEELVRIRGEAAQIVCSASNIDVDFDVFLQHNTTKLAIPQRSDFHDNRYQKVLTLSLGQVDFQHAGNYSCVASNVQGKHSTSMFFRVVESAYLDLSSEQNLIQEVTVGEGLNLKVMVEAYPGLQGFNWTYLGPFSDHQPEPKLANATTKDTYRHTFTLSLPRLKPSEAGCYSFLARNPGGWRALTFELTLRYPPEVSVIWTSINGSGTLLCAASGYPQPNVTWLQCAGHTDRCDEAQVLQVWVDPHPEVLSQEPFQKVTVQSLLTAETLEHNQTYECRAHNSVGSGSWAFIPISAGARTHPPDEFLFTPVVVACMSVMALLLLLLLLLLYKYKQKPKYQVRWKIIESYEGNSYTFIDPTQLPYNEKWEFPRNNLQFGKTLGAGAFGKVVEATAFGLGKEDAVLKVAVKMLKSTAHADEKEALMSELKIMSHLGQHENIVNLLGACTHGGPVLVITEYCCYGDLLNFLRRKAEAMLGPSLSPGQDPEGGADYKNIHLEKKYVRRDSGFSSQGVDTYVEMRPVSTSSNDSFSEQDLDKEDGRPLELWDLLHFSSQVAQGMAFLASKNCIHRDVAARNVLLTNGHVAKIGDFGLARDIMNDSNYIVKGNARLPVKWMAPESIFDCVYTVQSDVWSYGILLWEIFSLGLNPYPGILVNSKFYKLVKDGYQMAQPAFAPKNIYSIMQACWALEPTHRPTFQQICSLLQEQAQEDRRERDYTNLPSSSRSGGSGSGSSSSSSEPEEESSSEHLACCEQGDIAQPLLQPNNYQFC

Assay [4] concerns the target T2, full-length mouse CSF-1R (RefSeq ID NP_001032948) expressed on HEK293F cells (mouse, UniProt P09581 20-977).
T2 construct: whole, on cells
T2 sequence (looked up): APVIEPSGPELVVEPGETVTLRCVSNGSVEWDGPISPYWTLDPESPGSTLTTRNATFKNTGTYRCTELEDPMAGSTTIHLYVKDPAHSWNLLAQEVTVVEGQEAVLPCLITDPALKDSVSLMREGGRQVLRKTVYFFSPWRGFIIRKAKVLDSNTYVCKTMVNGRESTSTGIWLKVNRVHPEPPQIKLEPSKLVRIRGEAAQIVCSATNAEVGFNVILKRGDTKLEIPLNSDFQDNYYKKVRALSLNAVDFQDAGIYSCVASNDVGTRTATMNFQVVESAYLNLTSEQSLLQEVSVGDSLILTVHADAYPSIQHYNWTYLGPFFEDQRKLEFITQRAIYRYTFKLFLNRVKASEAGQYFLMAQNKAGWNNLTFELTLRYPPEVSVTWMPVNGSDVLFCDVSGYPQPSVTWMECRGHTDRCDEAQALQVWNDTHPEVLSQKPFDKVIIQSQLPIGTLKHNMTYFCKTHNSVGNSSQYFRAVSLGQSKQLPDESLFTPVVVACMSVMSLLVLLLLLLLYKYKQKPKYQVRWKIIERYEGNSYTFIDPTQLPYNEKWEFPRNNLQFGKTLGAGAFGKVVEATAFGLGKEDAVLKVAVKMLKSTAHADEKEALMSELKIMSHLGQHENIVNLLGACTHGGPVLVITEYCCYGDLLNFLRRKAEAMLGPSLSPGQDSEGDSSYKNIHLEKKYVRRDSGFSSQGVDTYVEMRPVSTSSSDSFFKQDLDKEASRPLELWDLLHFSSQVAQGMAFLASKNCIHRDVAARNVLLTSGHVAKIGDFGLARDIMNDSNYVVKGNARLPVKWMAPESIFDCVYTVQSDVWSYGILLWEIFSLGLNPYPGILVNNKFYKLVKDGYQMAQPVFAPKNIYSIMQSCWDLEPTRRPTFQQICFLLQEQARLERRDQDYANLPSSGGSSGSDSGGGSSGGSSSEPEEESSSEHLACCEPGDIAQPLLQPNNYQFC
As to the kind of experiment: flow cytometry on HEK293F cells transiently expressing full-length mouse CSF-1R (IRES-EGFP vector), Alexa Fluor 647 anti-human Fc detection [Conti.]. The procedure:
as §1

For assay [5], the target named is T3, full-length human CSF-1R expressed on cells (human, UniProt P07333 20-972).
T3 construct: whole, on cells
The assay is described as follows: flow cytometry on HEK293F cells transiently expressing full-length human CSF-1R (IRES-EGFP vector), IgG at 100 nM, Alexa Fluor 647 anti-human Fc detection [Conti.]. The procedure: as §1

For assay [6], the target named is T2, full-length mouse CSF-1R (RefSeq ID …). The assay is described as follows: flow cytometry on transfected HEK293F cells. The protocol:
as §1

Substitutions are numbered along the chain they refer to. In names and notes the source's numbering stands.

Molecule Isotype Ctrl (antibody) yielded a percent of cells in the upper right quadrant (APC Ab binding positive, FITC Ag display positive) in assay [1] of 0.17%.

B1: TY21428 (antibody, human IgG4, V domains shown)
VH: EVQLVESGGGLVQPGGSLRLSCAASGFTFSNYGIHWVRQAPGKGLEWVSVISGYGGSTYYADSVKGRFTISRDNSKNTLYLQLNSLRAEDTAVYYCARRGLTSTYFDYWGQGTLVTVSS
VL: DIQLTQSPSSLSASVGDRVTITCRASQSVGSWLAWYQQKPGKAPKLLIYDASNLETGVPSRFSGSGSGTDFTLTISSLQPEDFATYYCQQSYPIPPTFGQGTKVEIK
notes: Human IgG4 isotype with S241P mutation
Regarding B1, in assay [2], the Kd stood at 9.86 nM. For the same molecule, the “percent of cells in the upper right quadrant (APC Ab binding positive, FITC Ag display positive)” value in assay [3] turned out to be 31.3%; in assay [5], 41.3%. Moreover, the binding result in assay [4] is given as “no binding (tested: 100 nM)”.

B2: TY21430 (antibody, human IgG4, V domains shown)
VH: EVQLVESGGGLVQPGGSLRLSCAASGYSITSGHHWAWIRQAPGKGLEWVSSISGSGSTTYYADSVKGRFTISRDNSKNTLYLQLNSLRAEDTAVYYCARGSYYGAGSFDYWGQGTLVTVSS
VL: B1 VL with S28G, V29I, G30T, W32A, N53S, T56S, S91Y, I94W, P96W
notes: as for B1
In the case of B2, the affinity in assay [2], expressed as Kd, was 8.35 nM. For the same molecule, the “percent of cells in the upper right quadrant (APC Ab binding positive, FITC Ag display positive)” value in assay [3] is 32.3%; in assay [5], 41.2%. Moreover, the binding result in assay [4] is “no binding (tested: 100 nM)”.

B3: TY21431 (antibody, human IgG4, V domains shown)
VH: B1 VH with S30T, N31D, G33A, G56S, R99G, G100S, L101Y, T102S, T104V, Y108V
VL: DIQLTQSPSSLSASVGDRVTITCKASQDVRTAVAWYQQKPGKAPKLLIYAASSLQSGVPSRFSGSGSGTDFTLTISSLQPEDFATYYCQQSYPIPFTFGQGTKVEIK
notes: as for B1
In turn, B3 came in with a dissociation constant (Kd) in assay [2] of 20.9 nM. The binding result in assay [6] is recorded as “no binding (tested: 100 nM)”.

B4: TY21432 (antibody, human IgG4, V domains shown)
VH: B1 VH with F27Y, N31S, G33A, Y54A, G56S, G100T, L101P, T102A, S103G, T104N
VL: DIQLTQSPSSLSASVGDRVTITCRASQGISRWLAWYQQKPGKAPKLLIYDASSLESGVPSRFSGSGSGTDFTLTISSLQPEDFATYYCEQYLEVPPTFGQGTKVEIK
notes: as for B1
B4 displayed a Kd in assay [2] of 13.8 nM. For the same molecule, the “percent of cells in the upper right quadrant (APC Ab binding positive, FITC Ag display positive)” value in assay [3] was 28.8%; in assay [5], 41.7%. Besides, the binding result in assay [4] is “no binding (tested: 100 nM)”.

In general, Kd refers to a measure of binding affinity in units of concentration.

Values taken from patent US20230203170A1 (DRAGONBOAT BIOPHARMACEUTICAL SHANGHAI, published 2023).
